Experimental data from the supplement of paper PMC11246515.
± gives the standard deviation of the averaged measurements.

Assay: total protein half-life in vivo (active degradation + dilution); higher = more stable protein
[1] = E. coli NCM3722 delta-clpP, growth: N-lim chemostat, doubling time 6 h
[2] = E. coli NCM3722 delta-hslV, growth: N-lim chemostat, doubling time 6 h
[3] = E. coli NCM3722 delta-lon, growth: N-lim chemostat, doubling time 6 h
[4] = E. coli NCM3722 delta-smpB, growth: N-lim chemostat, doubling time 6 h
[5] = wild type E. coli NCM3722, growth: C-lim chemostat, doubling time 3 h
[6] = wild type E. coli NCM3722, growth: C-lim chemostat, doubling time 6 h
[7] = wild type E. coli NCM3722, growth: C-lim chemostat, doubling time 12 h
[8] = wild type E. coli NCM3722, growth: N-lim chemostat, doubling time 6 h
[9] = wild type E. coli NCM3722, growth: N-lim chemostat, doubling time 12 h
[10] = wild type E. coli NCM3722, growth: P-lim chemostat, doubling time 6 h
[11] = wild type E. coli NCM3722, growth: P-lim chemostat, doubling time 12 h
[12] = E. coli NCM3722 delta-clpP delta-lon delta-hslV, growth: N-lim chemostat, doubling time 6 h

Sequence	total protein half-life in vivo [1]	total protein half-life in vivo [2]	total protein half-life in vivo [3]	total protein half-life in vivo [4]	total protein half-life in vivo [5]	total protein half-life in vivo [6]	total protein half-life in vivo [7]	total protein half-life in vivo [8]	total protein half-life in vivo [9]	total protein half-life in vivo [10]	total protein half-life in vivo [11]	total protein half-life in vivo [12]
MAEMKNLKIEVVRYNPEVDTAPHSAFYEVPYDATTSLLDALGYIKDNLAPDLSYRWSCRMAICGSCGMMVNNVPKLACKTFLRDYTDGMKVEALANFPIERDLVVDMTHFIESLEAIKPYIIGNSRTADQGTNIQTPAQMAKYHQFSGCINCGLCYAACPQFGLNPEFIGPAAITLAHRYNEDSRDHGKKERMAQLNSQNGVWSCTFVGYCSEVCPKHVDPAAAIQQGKVESSKDFLIATLKPR [P0AC47]	5.78 ± 0.38 h	6.96 ± 1 h	5.92 ± 0.62 h	5.82 ± 0.086 h	3.07 ± 0.19 h	5.76 ± 0.11 h	11 ± 2.1 h	6.1 ± 0.5 h	12.2 ± 1.8 h	5.48 ± 0.44 h	13.1 ± 1.2 h	
MAESTVTADSKLTSSDTRRRIWAIVGASSGNLVEWFDFYVYSFCSLYFAHIFFPSGNTTTQLLQTAGVFAAGFLMRPIGGWLFGRIADKHGRKKSMLLSVCMMCFGSLVIACLPGYETIGTWAPALLLLARLFQGLSVGGEYGTSATYMSEVAVEGRKGFYASFQYVTLIGGQLLALLVVVVLQHTMEDAALREWGWRIPFALGAVLAVVALWLRRQLDETSQQETRALKEAGSLKGLWRNRRAFIMVLGFTAAGSLCFYTFTTYMQKYLVNTAGMHANVASGIMTAALFVFMLIQPLIGALSDKIGRRTSMLCFGSLAAIFTVPILSALQNVSSPYAAFGLVMCALLIVSFYTSISGILKAEMFPAQVRALGVGLSYAVANAIFGGSAEYVALSLKSIGMETAFFWYVTLMAVVAFLVSLMLHRKGKGMRL [P0AEX3]				1.61 ± 0.23 h	2.88 ± 0.36 h	4.51 h	10 ± 2.4 h	2.01 h		4.35 ± 0.23 h	6.27 ± 0.29 h	
MAGESFILMGVSGSGKTLIGSKVAALLSAKFIDGDDLHPAKNIDKMSQGIPLSDEDRLPWLERLNDASYSLYKKNETGFIVCSSLKKQYRDILRKGSPHVHFLWLDGDYETILARMQRRAGHFMPVALLKSQFEALERPQADEQDIVRIDINHDIANVTEQCRQAVLAIRQNRICAKEGSASDQRCE					2.82 ± 0.78 h	2.8 ± 0.43 h	3.67 h	1.6 h				4.25 h
MAGHSKWANTRHRKAAQDAKRGKIFTKIIRELVTAAKLGGGDPDANPRLRAAVDKALSNNMTRDTLNRAIARGVGGDDDANMETIIYEGYGPGGTAIMIECLSDNRNRTVAEVRHAFSKCGGNLGTDGSVAYLFSKKGVISFEKGDEDTIMEAALEAGAEDVVTYDDGAIDVYTAWEEMGKVRDALEAAGLKADSAEVSMIPSTKADMDAETAPKLMRLIDMLEDCDDVQEVYHNGEISDEVAATL [P0A8A0]	4.61 ± 0.6 h	3.03 ± 0.19 h	3.29 ± 0.17 h	2.94 ± 0.12 h	2.524 ± 0.013 h	4.01 ± 0.095 h	7.21 ± 0.53 h	3.15 ± 0.058 h	4.09 ± 0.034 h	3.69 ± 0.66 h	6.79 ± 0.84 h	5.28 ± 0.71 h
MAGNDREPIGRKGKPTRPVKQKVSRRRYEDDDDYDDYDDYEDEEPMPRKGKGKGKGRKPRGKRGWLWLLLKLAIVFAVLIAIYGVYLDQKIRSRIDGKVWQLPAAVYGRMVNLEPDMTISKNEMVKLLEATQYRQVSKMTRPGEFTVQANSIEMIRRPFDFPDSKEGQVRARLTFDGDHLATIVNMENNRQFGFFRLDPRLITMISSPNGEQRLFVPRSGFPDLLVDTLLATEDRHFYEHDGISLYSIGRAVLANLTAGRTVQGASTLTQQLVKNLFLSSERSYWRKANEAYMALIMDARYSKDRILELYMNEVYLGQSGDNEIRGFPLASLYYFGRPVEELSLDQQALLVGMVKGASIYNPWRNPKLALERRNLVLRLLQQQQIIDQELYDMLSARPLGVQPRGGVISPQPAFMQLVRQELQAKLGDKVKDLSGVKIFTTFDSVAQDAAEKAAVEGIPALKKQRKLSDLETAIVVVDRFSGEVRAMVGGSEPQFAGYNRAMQARRSIGSLAKPATYLTALSQPKIYRLNTWIADAPIALRQPNGQVWSPQNDDRRYSESGRVMLVDALTRSMNVPTVNLGMALGLPAVTETWIKLGVPKDQLHPVPAMLLGALNLTPIEVAQAFQTIASGGNRAPLSALRSVIAEDGKVLYQSFPQAERAVPAQAAYLTLWTMQQVVQRGTGRQLGAKYPNLHLAGKTGTTNNNVDTWFAGIDGSTVTITWVGRDNNQPTKLYGASGAMSIYQRYLANQTPTPLNLVPPEDIADMGVDYDGNFVCSGGMRILPVWTSDPQSLCQQSEMQQQPSGNPFDQSSQPQQQPQQQPAQQEQKDSDGVAGWIKDMFGSN	6.43 ± 0.51 h	6.2211 ± 0.00055 h	6.266 ± 0.031 h	6.19 ± 0.56 h	3.17 ± 0.036 h	6.09 ± 0.71 h	12.4 ± 1.3 h	6.01 ± 0.19 h	12.5 ± 0.15 h	6.15 ± 0.58 h	12.4 ± 0.17 h	6.443 ± 0.011 h
MAGNTIGQLFRVTTFGESHGLALGCIVDGVPPGIPLTEADLQHDLDRRRPGTSRYTTQRREPDQVKILSGVFEGVTTGTSIGLLIENTDQRSQDYSAIKDVFRPGHADYTYEQKYGLRDYRGGGRSSARETAMRVAAGAIAKKYLAEKFGIEIRGCLTQMGDIPLDIKDWSQVEQNPFFCPDPDKIDALDELMRALKKEGDSIGAKVTVVASGVPAGLGEPVFDRLDADIAHALMSINAVKGVEIGDGFDVVALRGSQNRDEITKDGFQSNHAGGILGGISSGQQIIAHMALKPTSSITVPGRTINRFGEEVEMITKGRHDPCVGIRAVPIAEAMLAIVLMDHLLRQRAQNADVKTDIPRW	5.29 ± 0.1 h	5.199 ± 0.021 h		4.78 ± 0.14 h	3.41 ± 0.23 h	5.92 ± 0.13 h	12 ± 0.84 h	5.09 ± 0.23 h	9.61 ± 0.79 h	6.51 ± 0.34 h	12.6 ± 1.4 h	5.73 ± 0.43 h
MAGPVLYQDRAMKQITFAPRNHLLTNTNTWTPDSQWLVFDVRPSGASFTGETIERVNIHTGEVEVIYRASQGAHVGVVTVHPKSEKYVFIHGPENPDETWHYDFHHRRGVIVEGGKMSNLDAMDITAPYTPGVLRGGSHVHVFSPNGERVSFTYNDHVMHELDPALDLRNVGVAAPFGPVNVQKQHPREYSGSHWCVLVSKTTPTPQPGSDEINRAYEEGWVGNHALAFIGDTLSPKGEKVPELFIVELPQDEAGWKAAGDAPLSGTETTLPAPPRGVVQRRLTFTHHRAYPGLVNVPRHWVRCNPQGTQIAFLMRDDNGIVQLWLISPQGGEPRQLTHNKTDIQSAFNWHPSGEWLGFVLDNRIACAHAQSGEVEYLTEHHANSPSADAVVFSPDGQWLAWMEGGQLWITETDR	4.73 ± 0.52 h	4.97 ± 0.094 h	4.8 ± 0.15 h	4.67 ± 0.09 h	3.17 ± 0.043 h	5.92 ± 0.44 h	11.1 ± 1.4 h	4.8 ± 0.56 h	8.45 ± 0.1 h	6.23 ± 0.21 h	11.3 ± 0.79 h	5.27 ± 0.21 h
MAGWFELSKSSDNQFRFVLKAGNGETILTSELYTSKTSAEKGIASVRSNSPQEERYEKKTASNGKFYFNLKAANHQIIGSSQMYATAQSRETGIASVKANGTSQTVKDNT	5.5 ± 0.46 h	6 ± 0.94 h	6.31 ± 1.2 h	5.48 ± 0.5 h	3.2 ± 0.24 h	5.83 ± 0.21 h	11.2 ± 0.74 h	5.24 ± 0.059 h	9.51 ± 0.29 h	5.54 ± 0.092 h	11 ± 0.41 h	
MAHPPRLNDDKPVIWTVSVTRLFELFRDISLEFDHLANITPIQLGFEKAVTYIRKKLANERCDAIIAAGSNGAYLKSRLSVPVILIKPSGYDVLQALAKAGKLTSSIGVVTYQETIPALVAFQKTFNLRLDQRSYITEEDARGQINELKANGTEAVVGAGLITDLAEEAGMTGIFIYSAATVRQAFSDALDMTRMSLRHNTHDATRNALRTRYVLGDMLGQSPQMEQVRQTILLYARSSAAVLIEGETGTGKELAAQAIHREYFARHDARQGKKSHPFVAVNCGAIAESLLEAELFGYEEGAFTGSRRGGRAGLFEIAHGGTLFLDEIGEMPLPLQTRLLRVLEEKEVTRVGGHQPVPVDVRVISATHCNLEEDMQQGRFRRDLFYRLSILRLQLPPLRERVADILPLAESFLKVSLAALSAPFSAALRQGLQASETVLLHYDWPGNIRELRNMMERLALFLSVEPTPDLTPQFMQLLLPELARESAKTPAPRLLTPQQALEKFNGDKTAAANYLGISRTTFWRRLKS	2.4 ± 0.6 h		2.71 h	2.277 ± 0.021 h	2.18 ± 0.55 h	4.02 ± 0.54 h	5.89 ± 0.42 h	2.53 ± 0.25 h	4.31 h			4.26 ± 0.052 h
MAHRPRWTLSQVTELFEKPLLDLLFEAQQVHRQHFDPRQVQVSTLLSIKTGACPEDCKYCPQSSRYKTGLEAERLMEVEQVLESARKAKAAGSTRFCMGAAWKNPHERDMPYLEQMVQGVKAMGLEACMTLGTLSESQAQRLANAGLDYYNHNLDTSPEFYGNIITTRTYQERLDTLEKVRDAGIKVCSGGIVGLGETVKDRAGLLLQLANLPTPPESVPINMLVKVKGTPLADNDDVDAFDFIRTIAVARIMMPTSYVRLSAGREQMNEQTQAMCFMAGANSIFYGCKLLTTPNPEEDKDLQLFRKLGLNPQQTAVLAGDNEQQQRLEQALMTPDTDEYYNAAAL	2.236 ± 0.018 h	0.669 h	0.723 ± 0.084 h	0.799 ± 0.048 h	0.8031 ± 0.0044 h	1.3 ± 0.08 h	1.44 ± 0.52 h	0.897 ± 0.17 h	1.09 ± 0.08 h	1.44 ± 0.36 h	2.68 ± 0.76 h	3.43 ± 0.23 h
MAIALVTGGSRGIGRATALLLAQEGYTVAVNYQQNLHAAQEVMNLITQAGGKAFVLQADISDENQVVAMFTAIDQHDEPLAALVNNAGILFTQCTVENLTAERINRVLSTNVTGYFLCCREAVKRMALKNGGSGGAIVNVSSVASRLGSPGEYVDYAASKGAIDTLTTGLSLEVAAQGIRVNCVRPGFIYTEMHASGGEPGRVDRVKSNIPMQRGGQAEEVAQAIVWLLSDKASYVTGSFIDLAGGK	5.48 ± 0.058 h	5.67 h	5.69 ± 0.45 h	4.82 h	3.03 ± 0.14 h	5.93 h		4.66 ± 0.41 h	8.32 ± 0.23 h	6.41 ± 0.74 h	11.2 ± 1.9 h	
MAIERTFSIIKPNAVAKNVIGNIFARFEAAGFKIVGTKMLHLTVEQARGFYAEHDGKPFFDGLVEFMTSGPIVVSVLEGENAVQRHRDLLGATNPANALAGTLRADYADSLTENGTHGSDSVESAAREIAYFFGEGEVCPRTR [P0A763]	3.93 ± 0.36 h	3.85 ± 0.32 h	4.39 ± 0.36 h	3.92 ± 0.15 h	3.09 ± 0.092 h	5.64 ± 0.11 h	9.324 ± 0.023 h	3.88 ± 0.28 h	6.19 ± 0.36 h	5 ± 0.82 h	10.6 ± 0.11 h	
MAIKKRSATVVPGASGAAAAVKNPQASKTSFWGELPQHVMSGISRMVPTLIMGGVILAFSQLIAYSWLKIPAEIGIMDALNSGKFSGFDLSLLKFAWLSQSFGGVLFGFAIPMFAAFVANSIGGKLAFPAGFIGGLMSTQPTQLLNFDPSTMQWATSSPVPSTFIGALIISIVAGYLVKWMNQKIQLPDFLLAFKTTFLLPILSAIFVMLAMYYVITPFGGWINGGIRTVLTAAGEKGALMYAMGIAAATAIDLGGPINKAAGFVAFSFTTDHVLPVTARSIAIVIPPIGLGLATIIDRRLTGKRLFNAQLYPQGKTAMFLAFMGISEGAIPFALESPITAIPSYMVGAIVGSTAAVWLGAVQWFPESAIWAWPLVTNLGVYMAGIALGAVITALMVVFLRLMMFRKGKLLIDSL					2.72 h	4.59 ± 0.42 h	6.4 h					
